For test [1], the target named is T1, biotin-peptide TSSMEDYVNF (human).
T1 peptide: Biotin-TSSMEDYVNF
Briefly: ELISA biotin-peptide; scFv 0.625 ug/mL; repI. On the procedure:
(§1) The peptides were synthesized naked or with a N-terminal Biotin modification with a purity of >98%. All four scFvs were verified by ELISA that can be detected with anti-His antibodies. ELISA was performed for scFv-peptide binding validation. Briefly, naked peptides were coated (50 μg/mL) in 0.58M carbonate-bicarbonate buffer pH9.5, 100 μL/well, 4° C. O/N. Then after blocking (3% BSA-PBS, 300 μL/well 37° C. 1.5 h) and washing (PBS+Tween-20 0.05% v/v (0.05% PBST), wells were incubated with each purified scFv antibody at concentration of 1 μg/mL in PBS at 37° C. 1 h. After washing (0.05% PBST), wells were incubated with secondary antibodies (goat anti-His IgG-HRP) in PBS, 37° C., 30 min. After washing, and incubation with TMB substrate, reactions were stopped with 2M HCl and reading was quantified at OD450.
(§2) ELISA with biotin-conjugated peptides (5 μg/mL) was performed very similar to described above with minor modifications.
(§3) A full curve ELISA was performed for each positive scFv/biotin-peptide pair in order to confirm previous results. Tables 15-17 show ELISA results of the dose-dependent full curve for each positive peptide with scFv “CCR9_HUM”, “Comp-2” and “Comp-3”, respectively.

For test [2], the target named is T2, biotin-peptide SMEDYVNFNF (human).
T2 peptide: Biotin-SMEDYVNFNF
Kind of test: ELISA biotin-peptide; scFv 0.625 ug/mL; repI. On the procedure:
as §1, §2, §3
A general note: ELISA stands for enzyme-linked immunosorbent assay.

Test [3] deals with T3, biotin-peptide SSMEDYVNFN (human).
T3 peptide: Biotin-SSMEDYVNFN
Briefly: ELISA biotin-peptide; scFv 0.625 ug/mL; repI. On the procedure: as §1, §2, §3

Test [4] concerns the target T4, biotin-peptide MEDYVNFNFT (human).
T4 peptide: Biotin-MEDYVNFNFT
Briefly: ELISA biotin-peptide; scFv 0.625 ug/mL; repI. On the procedure: as §1, §2, §3

Test [5] deals with T5, biotin-peptide TDFYCEKNNV (human).
T5 peptide: Biotin-TDFYCEKNNV
Kind of test: ELISA biotin-peptide; scFv 10 ug/mL; repI. On the procedure: as §1
(§4) Then a library of overlapping peptides were designed and constructed separately to produce 16 different peptides, covering full antigen sequence of total 48 aa. Peptide size was 10aa, with 7aa overlapping and ELISA screening of scFv against each peptide was performed in duplicate. Screening was performed using naked peptides in a standard plate or biotinylated peptides using avidin-plates. The list of overlapping peptides was as follows:
as §2

Test [6] has as its target T6, biotin-peptide FNFTDFYCEK (human).
T6 peptide: Biotin-FNFTDFYCEK
Kind of test: ELISA biotin-peptide; scFv 10 ug/mL; repI. How it is done: as §1, §4, §2

Test [7] has as its target T1, biotin-peptide TSSMEDYVNF
Kind of test: ELISA biotin-peptide; scFv 10 ug/mL; repI. How it is done: as §1, §4, §2

Test [8] deals with T7, biotin-peptide YVNFNFTDFY (human).
T7 peptide: Biotin-YVNFNFTDFY
Briefly: ELISA biotin-peptide; scFv 10 ug/mL; repI. On the procedure:
as §1, §4, §2

The target in test [9] is T2, biotin-peptide SMEDYVNFNF
Briefly: ELISA biotin-peptide; scFv 10 ug/mL; repI. How it is done:
as §1, §4, §2

Test [10] has as its target T8, biotin-peptide YCEKNNVRQF (human).
T8 peptide: Biotin-YCEKNNVRQF
Briefly: ELISA biotin-peptide; scFv 10 ug/mL; repI. On the procedure: as §1, §4, §2

The target of test [11] is T9, biotin-peptide TSPIPNMADD (human).
T9 peptide: Biotin-TSPIPNMADD
Kind of test: ELISA biotin-peptide; scFv 10 ug/mL; repI. On the procedure:
as §1, §4, §2

Another test addresses T10, biotin-peptide KNNVRQFAS (human).
T10 peptide: Biotin-KNNVRQFAS
Briefly: ELISA biotin-peptide; scFv 10 ug/mL; repI. On the procedure: as §1, §4, §2

In test [12] the target is T3, biotin-peptide SSMEDYVNFN
Briefly: ELISA biotin-peptide; scFv 10 ug/mL; repI. How it is done:
as §1, §4, §2

Test [13] addresses T11, biotin-peptide MTPTDFTSPI (human, also: prints MTPTDFTSP, without I10).
T11 peptide: Biotin-MTPTDFTSPI
Briefly: ELISA biotin-peptide; scFv 10 ug/mL; repI. On the procedure:
as §1, §4, §2

Test [14] has as its target T12, biotin-peptide MADDYGSEST (human).
T12 peptide: Biotin-MADDYGSEST
Kind of test: ELISA biotin-peptide; scFv 10 ug/mL; repI. On the procedure:
as §1, §4, §2

The target of test [15] is T13, biotin-peptide IPNMADDYGS (human).
T13 peptide: Biotin-IPNMADDYGS
Briefly: ELISA biotin-peptide; scFv 10 ug/mL; repI. How it is done:
as §1, §4, §2

Test [16] addresses T14, biotin-peptide TDFTSPIPNM (human).
T14 peptide: Biotin-TDFTSPIPNM
Kind of test: ELISA biotin-peptide; scFv 10 ug/mL; repI. How it is done: as §1, §4, §2

The target in test [17] is T15, biotin-peptide SESTSSMEDY (human).
T15 peptide: Biotin-SESTSSMEDY
Kind of test: ELISA biotin-peptide; scFv 10 ug/mL; repI. On the procedure: as §1, §4, §2

Test [18] addresses T4, biotin-peptide MEDYVNFNFT
Briefly: ELISA biotin-peptide; scFv 10 ug/mL; repI. On the procedure: as §1, §4, §2

The target of test [19] is T16, biotin-peptide DYGSESTSSM (human).
T16 peptide: Biotin-DYGSESTSSM
Briefly: ELISA biotin-peptide; scFv 10 ug/mL; repI. On the procedure: as §1, §4, §2

Test [20] has as its target T17, Peptide 2-BSA (GSESTSSMED-C conjugated to BSA) (human).
T17 peptide: GSESTSSMEDC(BSA)
Briefly: ELISA; Ab 0.03125 ug/mL; repII. How it is done: (§5) In brief, plates with each non-conjugated peptide (50 μg/mL) or BSA-conjugated peptide (5 μg/mL) were coated in 0.58M carbonate-bicarbonate buffer pH9.5, 100 μL/well, at 4° C. […] After washing, wells were incubated with the 3, 3′,5,5′-Tetramethylbenzidine (TMB) HRP substrate and reactions were stopped with 2M HCl and OD450 was recorded.

Test [21] concerns the target T18, Peptide 4, non-conjugated (SMEDYVNFNF-C) (human).
T18 construct: With the extra C-terminal Cys
T18 peptide: SMEDYVNFNFC
Briefly: ELISA; Ab 0.03125 ug/mL; repII. On the procedure: as §5

Test [22] deals with T19, Peptide 3, non-conjugated (SSMEDYVNFN-C) (human).
T19 construct: With the extra C-terminal Cys
T19 peptide: SSMEDYVNFNC
Briefly: ELISA; Ab 0.03125 ug/mL; repII. How it is done: as §5

The target in test [23] is T20, Peptide 1-BSA (MADDYGSEST-C conjugated to BSA) (human).
T20 peptide: MADDYGSESTC(BSA)
Kind of test: ELISA; Ab 0.03125 ug/mL; repII. How it is done: as §5

The values that follow come from patent US20260232732A1 (FUNDACI INSTITUT DE RECERCA CONTRA LA LEUC MIA JOSEP …, published 2026).

Where no end group is shown, it is not given here. The star is where a group is joined. Biotin = O=C1N[C@H]2[C@H](CS[C@H]2CCCCC(=O)*)N1

B1: CCR9_HUM2 scFv (humanized anti-CCR9 scFv, SEQ ID NO: 17 with C-terminal 6xHis tag) (scFv)
scFv: QVQLVQSGAEVKKPGASVKVSCTASGYSFTDYIIYWVKQAHGQSLEWMGYIDPNNYNTRYSQKFQGKVTITVDKSSTSAYMELNSLTSDDTAVYYCARDVYWGQGTTVTVSSGGGGSGGGGSGGGGSGGGGSDVVMTQTPLSLSVTPGQPASISCRSSQSLVHSNGKTYLQWYLQKPGQSPKLLIYKVSNRFSGVPDRFSGSGSGTDFTLKISRVEAEDVGVYFCAQSTHVWTFGGGTKVEIKRAHHHHHH
Consider B1, for which the OD450 in test [1] came to 0.78 OD; in [2], 1.71 OD; in test [3], 1.73 OD; in [4] it was 1.53 OD; in test [5], 0.08 OD; in [6], 0.05 OD. Also, the OD450 was found to be 2.05 OD in test [7]; 0.17 OD in test [8]; 2.48 OD in test [9]; 0.07 OD in test [10]; 0.09 OD in test [11]; 0.07 OD with biotin-peptide KNNVRQFAS. Further, the OD450 worked out at 2.45 OD in [12]; 0.09 OD in test [13]; 0.09 OD in [14]; 0.14 OD in [15]; 0.12 OD in test [16]; 0.08 OD in test [17]. For the same molecule, the OD450 in [18] turned out to be 2.56 OD; in test [19], 0.09 OD.

B2: anti-CCR9 antibody clone 115 (murine, from hybridoma #115) (antibody, V domains shown)
VH: QVQLKQSGPELVKPGTSVRVSCTASGYSFTDYIIYWVKQSHGRSLEWIGYIDPNNYNTRYSQKFKGKATLTVDKSSTSAFMHLNSLTSDDSAVYYCARDVYWGQGTTLTVSS
VL: DVVMTQTPLSLTVSLGDQASISCRSSQSLVHSNGKTYLQWYLQKPGQSPKLLIYKVSNRFSGVPDRFSGSGSGTDFTLKISRVEAEDLGVYFCAQSTHVWTFGGGTKLEIKR
notes: Mouse IgG1
For B2, the OD450 in [20] stood at 0.01 OD; in test [21], 0.76 OD; in test [22] it was 1.62 OD; in test [23] it was 0.01 OD.

B3: Comparative antibody 3 (Comp-3) scFv, SR_92R (Somovilla-Crespo et al. 2018), His-tagged (scFv)
scFv: EVKLEESGGGLVQPGGSMKLSCVASGFTFNKFWMNWVRQSPEKGLEWVAEIRLKSNNYATHYAESVKGRFTISRDDSKSSVYLQMNNLRAEDTGIYYCASDGWFAYWGQGTLVTVSAGGGGSGGGGSGGGGSGGGGSDVVMTQTPLSLPVSLGDQASISCRSSQSLVHSNGNTYLNWCLQRPGQSPKSLIYKVSNRFSGVPDRFSGSGSGTDFTLKISRVEAEDLGVYFCSQSTHFPRTFGGGTKLEIKRHHHHHH
As to B3, the OD450 in test [5] came out at 0.08 OD; in test [6], 0.09 OD; in test [7] it was 0.1 OD; in test [8], 0.1 OD; in test [9], 0.1 OD; in [10] it was 0.11 OD. Also, the OD450 was 1.6 OD in test [11]; 0.09 OD with biotin-peptide KNNVRQFAS; 0.15 OD in test [12]; 0.1 OD in test [13]; 0.09 OD in test [14]; 1.59 OD in [15]. The OD450 in test [16] was found to be 0.11 OD; in [17], 0.15 OD; in test [18], 0.1 OD; in [19] it was 0.12 OD.

B4: Comparative antibody 1 (Comp-1) scFv, SEQ ID NO: 10 from WO2023/037125 A1, His-tagged (scFv)
scFv: QVQLKESGPGLVQPSQTLSLTCTVSGFSVASYDMHWVRLPPGKGLEWMGIIWANGNTHYNSGLKSRLSISRDTSKSQVFLKMNSLQTEDTAIYFCTRGGFAYWGQGTLVTVSSGGGGSGGGGSGGGGSGGGGSDVVMTQTPVSLSVSLGGQVSISCRSSQSLVHNNGNTYLSWYLQKPGQSPQLLIYKVSNRFSGVSDRFSGSGSGTDFTLKISRVEPDDLGVYYCGQGTQYPTFGGGTKLELKHHHHHH
For the molecule B4, the OD450 in [5] was 0.08 OD; in [6], 0.06 OD; in test [7], 0.1 OD; in test [8] it was 0.1 OD; in test [9], 0.15 OD; in test [10], 0.06 OD. For the same molecule, the OD450 in test [11] came out at 0.13 OD; with biotin-peptide KNNVRQFAS, 0.05 OD; in test [12], 0.1 OD; in test [13] it was 0.08 OD; in [14], 0.08 OD; in [15], 0.16 OD. For the same molecule, the OD450 stood at 0.06 OD in test [16], 0.13 OD in test [17], 0.16 OD in [18] and 0.1 OD in test [19].

B5: Comparative antibody 2 (Comp-2) scFv, 243LO326 (VH SEQ ID NO: 51 and VL SEQ ID NO: 52 of WO 2022/195028 A2), His-tagged (scFv)
scFv: QVQLVQSGAEVKKPGASVKVSCKASGYTFTSYWMHWVRQAPGQGLEWIGVIYPGNSDTRYNQKFKGRVTITRDTSASTAYMELSSLRSEDTAVYYCTRDYYSNYVYYYAMDYWGQGTTVTVSSGGGGSGGGGSGGGGSGGGGSDIVMTQTPLSLPVTPGEPASISCRSSQSLVHPNRNTYLHWYLQKPGQSPQLLIYKVSNRFSGVPDRFSGSGSGTDFTLKISRVEAEDVGVYYCSQSTHVPWTFGQGTKLEIKHHHHHH
In the case of B5, the OD450 stood at 0.06 OD in [5]; 1.45 OD in test [6]; 0.08 OD in [7]; 1.93 OD in test [8]; 0.09 OD in [9]; 0.09 OD in test [10]. Besides, the OD450 in test [11] amounted to 0.04 OD; in the test with biotin-peptide KNNVRQFAS, 0.08 OD; in test [12] it was 0.12 OD; in [13], 0.08 OD; in test [14], 0.08 OD; in test [15] it was 0.1 OD. In addition, the OD450 in test [16] came out at 0.1 OD; in [17] it was 0.06 OD; in test [18] it was 0.1 OD; in test [19] it was 0.09 OD.
